# From PMC7764042
# pKd: −log10 of the molar value.
# Columns and labels:
# [1] = biological target: Tag7 (Homo sapiens) (UniProt O75594); details: cited from earlier work
# [2] = biological target: recombinant human interferon alfa-2b (human) (UniProt P01563); assay: SPR; IFN-α immobilised by amine coupling; S100 proteins as analyte; 25 °C; 10 mM HEPES, 150 mM NaCl, 0.01% TWEEN 20, pH 7.4
# [3] = biological target: IFNAR2 ECD (Homo sapiens) (UniProt P48551); details: cited from earlier work
# [4] = biological target: S100P (Homo sapiens) (UniProt P25815); details: cited from earlier work
substance,measurement,setting,value
S100A4 (from UniProt P26447),pKd,[1],9.00
recombinant human S100A4 (from UniProt P26447 1-101) (natural protein),pKd,[2],< 5.00
recombinant human S100A1 (from UniProt P23297 2-94) (natural protein),pKd,[2],< 5.00
IFN-β (from UniProt P01574),pKd,[3],> 10.00
same,pKd,[4],9.52
